From patent US20250076311A1 (Chugai, published 2025)
Residue numbers refer to the chain shown, from its start. Numbers in names are those of the source.

How the values were obtained:
[1] = target: T1, human FcγRIIb extracellular domain, His-tagged (human, UniProt P31994 43-217); assay: SPR, 25C, antibody captured, FcγR as analyte
T1 construct: also called FcgRIIb (human)
T1 sequence: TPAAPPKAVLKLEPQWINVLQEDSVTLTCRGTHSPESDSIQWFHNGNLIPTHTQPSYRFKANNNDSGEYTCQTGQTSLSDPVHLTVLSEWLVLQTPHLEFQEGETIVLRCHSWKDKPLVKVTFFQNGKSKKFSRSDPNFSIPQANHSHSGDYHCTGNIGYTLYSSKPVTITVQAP
Procedure: (§1) The kinetic analysis of interactions between these antibodies and FcγR was carried out using BIACORE® T200 or BIACORE® 4000 (GE Healthcare). HBS-EP+ (GE Healthcare) was used as the running buffer, and the measurement temperature was set to 25° C. […] After the measurement, the antibody captured on the chip was washed off by allowing reaction with 10 mM glycine-HCl, pH1.5 and 25 mM NaOH so that the chip was regenerated and used repeatedly. The sensorgrams obtained as measurement results were analyzed by the 1:1 Langmuir binding model using the BIACORE® Evaluation Software to calculate the binding rate constant ka (L/mol/s) and dissociation rate constant kd (1/s), and the dissociation constant KD (mol/L) was calculated from these values. […] Regarding such interactions, KD values were calculated using the following 1:1 binding model described in BIACORE® T100 Software Handbook BR1006-48 Edition AE.

[2] = target: T2, cynomolgus monkey FcγRIIIaS extracellular domain with C-terminal His-tag (cynomolgus monkey, UniProt Q8SPW2 21-206 at identity 1.00)); assay: SPR (Biacore), KD of SG1 / KD of variant
T2 construct: also called cyno FcgRIIIaS; cynoFcγRIIIaS
T2 chain: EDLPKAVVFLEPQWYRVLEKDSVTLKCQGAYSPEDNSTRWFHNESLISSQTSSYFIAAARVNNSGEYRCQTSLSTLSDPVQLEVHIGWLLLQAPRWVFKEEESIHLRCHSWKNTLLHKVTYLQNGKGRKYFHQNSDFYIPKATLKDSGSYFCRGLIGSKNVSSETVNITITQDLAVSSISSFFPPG

[3] = target: T3, human FcγRIIaR extracellular domain with C-terminal His-tag (human, UniProt P12318 34-217); assay: SPR (Biacore), antibody captured, FcgR analyte
T3 construct: also called human FcgRIIaR; FcγRIIa (type R)
T3 chain: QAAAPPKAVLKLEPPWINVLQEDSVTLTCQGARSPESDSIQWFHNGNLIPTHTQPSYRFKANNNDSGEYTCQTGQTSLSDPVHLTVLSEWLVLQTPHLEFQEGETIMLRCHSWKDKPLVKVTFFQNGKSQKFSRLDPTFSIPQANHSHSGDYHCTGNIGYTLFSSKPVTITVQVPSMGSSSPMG
Procedure: as §1

[4] = target: T4, cynomolgus monkey FcγRIIa3 extracellular domain with C-terminal His-tag (cynomolgus monkey); assay: SPR (Biacore), KD of SG1 / KD of variant
T4 construct: also called cyno FcgRIIa3; cynoFcγRIIa3
T4 chain: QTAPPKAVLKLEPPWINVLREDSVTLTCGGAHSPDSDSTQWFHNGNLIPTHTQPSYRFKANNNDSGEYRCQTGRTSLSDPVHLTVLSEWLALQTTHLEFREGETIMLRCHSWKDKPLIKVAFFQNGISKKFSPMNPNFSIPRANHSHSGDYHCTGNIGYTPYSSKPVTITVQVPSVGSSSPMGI

[5] = target: T5, human FcγRIIaH extracellular domain with C-terminal His-tag (human, UniProt P12318 34-217); assay: SPR (Biacore), KD of SG1 / KD of variant
T5 construct: also called human FcgRIIaH; FcγRIIa (type H)
T5 sequence: T3 chain with R134H

[6] = target: T6, human FcγRIIIaV extracellular domain with C-terminal His-tag (human, UniProt P08637 17-208); assay: SPR (Biacore), KD of SG1 / KD of variant
T6 construct: also called human FcgRIIIaV
T6 sequence (P08637 17-208 F176V): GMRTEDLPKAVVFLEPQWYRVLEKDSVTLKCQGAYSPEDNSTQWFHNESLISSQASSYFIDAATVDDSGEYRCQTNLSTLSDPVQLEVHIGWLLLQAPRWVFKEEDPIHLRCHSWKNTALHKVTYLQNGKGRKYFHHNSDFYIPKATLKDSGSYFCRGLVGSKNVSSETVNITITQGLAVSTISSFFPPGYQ

[7] = target: T3, human FcγRIIaR extracellular domain …; assay: SPR (Biacore), KD of SG1 / KD of variant
[8] = target: T5, human FcγRIIaH extracellular domain …; assay: SPR (Biacore), antibody captured, FcgR analyte
Procedure: as §1

[9] = target: T7, cynomolgus monkey FcγRIIa2 extracellular domain with C-terminal His-tag (cynomolgus monkey); assay: SPR (Biacore), KD of SG1 / KD of variant
T7 construct: also called cyno FcgRIIa2; cynoFcγRIIa2
T7 chain: T4 chain with I127K, K130N, P133H, R142Q

[10] = target: T2, cynomolgus monkey FcγRIIIaS …; assay: SPR (Biacore), antibody captured, FcgR analyte
Procedure: as §1

[11] = target: T6, human FcγRIIIaV extracellular domain …; assay: SPR (Biacore), antibody captured, FcgR analyte
Procedure: as §1

[12] = target: T8, human FcγRIIIaV extracellular domain, His-tagged (human, UniProt P08637 17-208); assay: SPR (BIACORE), antibody captured, FcγR analyte, 25 C; KD of SG1 divided by KD of variant
T8 construct: also called human FcγRIIIa (V158); FcgRIIIaV
T8 sequence (P08637 17-208 F176V): as above
Procedure: as §1

B1: MS103205H795-SG1012/M103202L889-SK1 (antibody, human IgG1, kappa)
heavy: QVTLKESGPVLVKPTETLTLTCTVSGIDLSHDDISWVRQAPGKGLEWVGIISYAGSTYYASWAKGRLTISKDTSKNQVVLTMTNMDPVDTATYYCARGVPAYSHGGDLWGQGTLVTVSSASTKGPSVFPLAPSSKSTSGGTAALGCLVKDYFPEPVTVSWNSGALTSGVHTFPAVLQSSGLYSLSSVVTVPSSSLGTQTYICNVNHKPSNTKVDKKVEPKSCDKTHTCPPCPAPELLNGPSVFLFPPKPKDTLMISRTPEVTCVVVDVSEEDPEVKFNWYVDGVEVHNAKTKPREEQYNSTYRVVSVLTVLHQDWLNGKEYKCKVSNKALPKPIEKTISKAKGQPREPQVYTLPPSREEMTKNQVSLTCLVKGFYPSDIAVEWESNGQPENNYKTTPMVLDSDGSFFLYSKLTVDKSRWQQGNVFSCSVMHEALHAHYTQKSLSLSP
light: DIVMTQSPATLSLSPGERATLSCTSSQSVYHANWLSWFQQKPGQPPKLLIYWASTLAYGVPSRFSGSGSGTDFTLTISSLQPEDAATYYCAGGYGGGRYAFGQGTKVEIKRTVAAPSVFIFPPSDEQLKSGTASVVCLLNNFYPREAKVQWKVDNALQSGNSQESVTEQDSKDSTYSLSSTLTLSKADYEKHKVYACEVTHQGLSSPVTKSFNRGEC
notes: also called MS1032LO06-SG1012
fold enhanced affinity compared to SG1 [1]: 10 fold

B2: MS103205H795-SG1016/M103202L889-SK1 (antibody, human IgG1, kappa)
heavy: B1 heavy with Q313R, D401K
light: B1 light
notes: Built from the text: Q311R/D399K introduced into SG1012; also called MS1032LO06-SG1016
fold enhanced affinity compared to SG1 [1]: 10 fold

B3: MS103240H795-SG1074/M103202L1045-SK1 (antibody, name in EU numbering)
heavy: QVQLVESGGGLVQPGGSLRLSCAVSGIDLSHDDISWVRQAPGKGLEWVSIISYAGSTYYASWAKGRLTISKDTSKNQVVLTMTNMDPVDTATYYCARGVPAYSHGGDLWGQGTLVTVSSASTKGPSVFPLAPSSKSTSGGTAALGCLVKDYFPEPVTVSWNSGALTSGVHTFPAVLQSSGLYSLSSVVTVPSSSLGTQTYICNVNHKPSNTKVDKKVEPKSCDKTHTCPPCPAPELLNGPSVFLFPPKPKDTLMISRTPEVTCVVVDVSDEDPEVKFNWYVDGVEVHNAKTKPREELYNSTYRVVSVLTVLHRDWLNGKEYKCKVSNTALPKPIEKTISKAKGQRREPQVYTLPPSREEMTKNQVSLTCLVKGFYPSDIAVEWESNGQPENNYKTTPPVLDSDGSFFLYSKLTVDKSRWQQGNVFSCSVLHEALHAHTTRKELSLSP
light: B1 light with S25T, A32E
notes: also called MS1032LO19-SG1074
fold enhanced affinity compared to SG1 [1]: 10 fold

B4: MS103240H795-SG1080/M103202L1045-SK1 (antibody, name in EU numbering)
heavy: B3 heavy with L430M, T438Y
light: B1 light with S25T, A32E
notes: Built from the text: MY209 plus Q311R/P343R and N434A/Q438R/S440E; also called MS1032LO19-SG1080
fold enhanced affinity compared to SG1 [1]: 10 fold

B5: M103205H795-MY441/M103202L889-SK1 (antibody, human IgG1, kappa)
heavy: B1 heavy with P234A, N238T, E270D, M398P, A436N
light: B1 light
notes: Substitutions in EU numbering on SG1
KD fold (SG1 = 1) [2]: 0.2 fold | Kd [3]: 0.6 µM

B6: M103205H795-MY443/M103202L889-SK1 (antibody, human IgG1, kappa)
heavy: B1 heavy with P234E, N238T, E270D, M398P, A436N
light: B1 light
notes: as for B5
KD fold (SG1 = 1) [2]: 0.2 fold | KD fold (SG1 = 1) [4]: 1.5 fold | KD fold (SG1 = 1) [5]: 1.5 fold

B7: M103205H795-MY444/M103202L889-SK1 (antibody, human IgG1, kappa)
heavy: B1 heavy with P234F, N238T, E270D, M398P, A436N
light: B1 light
notes: as for B5
KD fold (SG1 = 1) [4]: 8.9 fold | KD fold (SG1 = 1) [6]: 0.2 fold | KD fold (SG1 = 1) [7]: 7.5 fold | KD fold (SG1 = 1) [5]: 6.5 fold

B8: M103205H795-MY449/M103202L889-SK1 (antibody, human IgG1, kappa)
heavy: B1 heavy with P234L, N238T, E270D, M398P, A436N
light: B1 light
notes: as for B5
Kd [8]: 0.098 µM

B9: M103205H795-MY454/M103202L889-SK1 (antibody, human IgG1, kappa)
heavy: B1 heavy with P234S, N238T, E270D, M398P, A436N
light: B1 light
notes: as for B5
KD fold (SG1 = 1) [4]: 2.2 fold | KD fold (SG1 = 1) [9]: 1.8 fold | Kd [10]: 2.8 µM

B10: M103205H795-MY458/M103202L889-SK1 (antibody, human IgG1, kappa)
heavy: B1 heavy with P234Y, N238T, E270D, M398P, A436N
light: B1 light
notes: as for B5
Kd [10]: 1.9 µM

B11: M103205H795-MY459/M103202L889-SK1 (antibody)
heavy: B1 heavy with A233D, N238T, E270D, M398P, A436N
light: B1 light
notes: as for B5
KD fold (SG1 = 1) [2]: 0.2 fold | KD fold (SG1 = 1) [5]: 1.6 fold

B12: M103205H795-MY466/M103202L889-SK1 (antibody)
heavy: B1 heavy with A233L, N238T, E270D, M398P, A436N
light: B1 light
notes: as for B5
KD fold (SG1 = 1) [9]: 2.8 fold | KD fold (SG1 = 1) [6]: 0.2 fold | Kd [11]: 4.6 µM | Kd [3]: 0.26 µM

B13: M103205H795-MY460/M103202L889-SK1 (antibody)
chain 1: B1 heavy with A233E, N238T, E270D, M398P, A436N
chain 2: B1 light
KD fold (SG1 = 1) [2]: 0.2 fold

B14: M103205H795-MY449/M103202L889-SK1 (antibody, human IgG1, kappa, name in EU numbering)
heavy: B1 heavy with P234L, N238T, E270D, M398P, A436N
light: B1 light
KD fold (SG1 = 1) [12]: 0.2 fold
